Data as given in US20220363752A1 (VERSEAU THERAPEUTICS, published 2022).
Primed or numbered codes have the meaning given here. Biotin′ = not defined here

T1: LRRC25(81-100) biotin peptide (human, not fully specified; N-terminal acetyl; C-terminal GGK-Biotin)
T1 peptide: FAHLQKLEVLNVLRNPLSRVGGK

T2: LRRC25(36-55) biotin peptide (human, not fully specified; N-terminal NH2; C-terminal GGK-Biotin; native Cys changed to Ser)
T2 peptide: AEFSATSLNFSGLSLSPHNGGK

T3: LRRC25(66-85) biotin peptide (human, not fully specified; N-terminal acetyl; C-terminal GGK-Biotin)
T3 peptide: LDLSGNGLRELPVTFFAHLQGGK

T4: LRRC25(21-40) biotin peptide (human, not fully specified; N-terminal NH2; C-terminal GGK-Biotin; native Cys changed to Ser)
T4 peptide: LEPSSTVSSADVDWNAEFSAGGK

T5: LRRC25(150-165) biotin peptide (human)
T5 peptide: Ac-SAFLEVSSAPGLASATGG-{Biotin′}

T6: LRRC25(111-130) biotin peptide (human, not fully specified; N-terminal acetyl; C-terminal GGK-Biotin; native Cys changed to Ser)
T6 peptide: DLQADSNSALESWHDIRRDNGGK

T7: LRRC25(96-115) biotin peptide (human, not fully specified; N-terminal acetyl; C-terminal GGK-Biotin; native Cys changed to Ser)
T7 construct: also called Biotin LRRC25 (96-115) peptide
T7 peptide: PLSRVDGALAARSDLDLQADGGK

T8: LRRC25(141-159) biotin peptide (human, not fully specified; N-terminal acetyl; C-terminal GGK-Biotin; native Cys changed to Ser)
T8 peptide: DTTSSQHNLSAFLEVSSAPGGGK

T9: LRRC25(126-145) biotin peptide (human, not fully specified; N-terminal acetyl; C-terminal GGK-Biotin; native Cys changed to Ser)
T9 peptide: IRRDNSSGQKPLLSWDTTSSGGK

T10: LRRC25(51-69) biotin peptide (human, not fully specified; N-terminal acetyl; C-terminal GGK-Biotin)
T10 peptide: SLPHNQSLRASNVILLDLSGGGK


What was measured:
[1] = target: T1, LRRC25(81-100) biotin peptide; test: peptide ELISA
Summary of the method: (§1)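 Plate-bound streptavidin captured biotinylated 16- to 20-mer LRRC25 ECD overlapping peptides (2 ug/mL), with biotinylated human LRRC25-His as positive control. Chimeric anti-LRRC25 antibodies at 20 nM, 45 min at 37° C in duplicate; detection by HRP anti-human IgG and TMB at A450 nm.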

[2] = target: T2, LRRC25(36-55) biotin peptide; test: peptide ELISA
Summary of the method: as §1

[3] = target: T3, LRRC25(66-85) biotin peptide; test: peptide ELISA
Summary of the method: as §1

[4] = target: T4, LRRC25(21-40) biotin peptide; test: peptide ELISA
Summary of the method: as §1

[5] = target: T5, LRRC25(150-165) biotin peptide; test: peptide ELISA
Summary of the method: as §1

[6] = target: T6, LRRC25(111-130) biotin peptide; test: peptide ELISA
Summary of the method: as §1

[7] = target: T7, LRRC25(96-115) biotin peptide; test: peptide ELISA
Summary of the method: as §1

[8] = target: T8, LRRC25(141-159) biotin peptide; test: peptide ELISA
Summary of the method: as §1

[9] = target: T9, LRRC25(126-145) biotin peptide; test: peptide ELISA
Summary of the method: as §1

[10] = target: T10, LRRC25(51-69) biotin peptide; test: peptide ELISA
Summary of the method: as §1

[11] = target: T11, His-tagged human LRRC25 extracellular domain protein, human LRRC25-His (human, UniProt Q8N386 21-165); test: ELISA, plate-immobilized antigen
T11 construct: The entry holds the extracellular domain, a GSG linker and the His tag; also called LRRC25(ECD)-HIS
T11 sequence (Q8N386 other isoform, or with tags, fused parts or gaps): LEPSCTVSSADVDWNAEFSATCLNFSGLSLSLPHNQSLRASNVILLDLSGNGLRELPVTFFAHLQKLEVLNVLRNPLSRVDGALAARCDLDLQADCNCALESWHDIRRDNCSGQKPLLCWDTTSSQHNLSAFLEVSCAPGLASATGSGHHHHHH
Summary of the method: (§2)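 Wells coated overnight at 4 °C with 1 ug/mL antigen in PBS pH 7.4. Antibodies titrated from 500 nM in 3-fold steps in 1% skimmed milk/PBS, 1 h at room temperature, then HRP anti-human IgG; TMB read at A450 nm and EC50 taken from binding curves.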

[12] = target: T12, His-tagged cynomolgus monkey LRRC25 extracellular domain protein, cyno LRRC25-His (cynomolgus monkey); test: ELISA, plate-immobilized antigen
T12 construct: The entry holds the extracellular domain, a GSG linker and the His tag
T12 sequence (chain, as listed by the source limits assumed): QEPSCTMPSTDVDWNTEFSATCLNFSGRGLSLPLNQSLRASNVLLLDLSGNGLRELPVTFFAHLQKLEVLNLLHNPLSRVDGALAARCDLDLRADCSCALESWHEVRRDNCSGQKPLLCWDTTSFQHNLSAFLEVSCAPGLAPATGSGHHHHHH
Summary of the method: as §2

[13] = target: T7, LRRC25(96-115) biotin peptide; test: ELISA, 20 nM antibody, biotinylated antigen on streptavidin plate
Summary of the method: as §1

[14] = target: T13, biotinylated human LRRC25-His protein (human, UniProt Q8N386 21-165, biotinylated (sites not given)); test: as above
T13 construct: also called Biotin LRRC25-His; biotinylated LRRC25 protein
T13 sequence (Q8N386 other isoform, or with tags, fused parts or gaps): as the sequence (Q8N386 other isoform, or with tags, fused parts or gaps) above
Summary of the method: as §1

[15] = target: T11, His-tagged human LRRC25 extracellular …; test: ELISA, antibody titrated on plate-immobilized Human LRRC25(ECD)-His, A450nm against -log [IgG] (M), left panel
Description: To establish the relative binding strengths of anti-LRRC25 antibodies against human LRRC25, and their cross-reactivity with cynomolgus monkey LRRC25, antibody binding curve analyses were performed and EC50 values against plate-immobilized recombinant human and cyno LRRC25 proteins were determined.
A typical ELISA was performed by coating overnight in PBS, pH 7.4, at 4° C. in high binding microtiter wells with 1 ug/mL/100 ul per well of human LRRC25-His or cyno LRRC25-His. An anti-human LRRC25 antibody (2A3, LS Bio, LS-C174039-100) and anti-HIS-HRP (Miltenyi Biotec; 130-092-783) served as coating controls for the human and cyno LRRC25 proteins, respectively. […] Anti-LRRC25 antibodies were added (100 ul per well) at 500 nM and serially diluted 3-fold in assay buffer (1% skimmed milk in PBS, pH 7.4). The plate was incubated with gentle agitation for 1 h at room temperature. The plate was washed 3× and HRP-conjugated secondary antibody in assay buffer added [100 ul per well; goat anti-human IgG (Jackson Immunoresearch, cat #715-035-150)], and the plate was incubated as before. Antibody bound to plate-immobilized LRRC25(ECD)-HIS was determined at A450 nm using HRP substrate (3,3′,5,5′-tetramethylbenzidine (TMB); eBioscience; 00-4201-56); 100 μl/well).

Row | binding result [1] | binding result [2] | binding result [3] | binding result [4] | binding result [5] | binding result [6] | binding result [7] | binding result [8] | binding result [9] | binding result [10] | EC50 [11] | EC50 [12] | absorbance (A450) [13] | absorbance (A450) [14] | EC50 (read off the curve) [15] | Binder
1 | no binding (tested: 20 nM) | no binding (tested: 20 nM) | no binding (tested: 20 nM) | no binding (tested: 20 nM) | no binding (tested: 20 nM) | no binding (tested: 20 nM) | no binding (tested: 20 nM) | no binding (tested: 20 nM) | no binding (tested: 20 nM) | no binding (tested: 20 nM) | 0.63 nM | 4.6 nM | 0.052 A450 | 2.44 A450 |  | anti-LRRC25 chimeric antibody 2A07 (antibody, human IgG4, V domains shown) VH: EVKLDESGGGLVQPGGSLKLSCATSGFTFSDYYMYWVRQTPEKRLEWVAYISNGGGSTYYPDTVKGRFTISRDNAKNTLYLQMSRLKSEDTAMYYCARSTAVSQMDYWGQGTSVTVSS VL: DIVLTQSPAIMSASPGEKVTLTCSASSSVRSSYLNWYQQKPGSSPKLWIHGTSNLASGVPARFSGSGSGTSYSLTISSMEAEDAASYFCHQWSSYPPTFGAGTKLELKR
2 | no binding (tested: 20 nM) | no binding (tested: 20 nM) | no binding (tested: 20 nM) | no binding (tested: 20 nM) | no binding (tested: 20 nM) | no binding (tested: 20 nM) |  | no binding (tested: 20 nM) | no binding (tested: 20 nM) | no binding (tested: 20 nM) | 1.3 nM | 83.2 nM | 2.56 A450 | 1.7 A450 | ~1 nM | anti-LRRC25 chimeric antibody 1E01 (antibody, human IgG4, V domains shown, also called mAb 1E01) VH: DVQLVESGGGLVKPGGSLKLSCAASGFTFSNYAMSWVRQTPEKRLEWVASISRGGNTYYPDSVKGRFTISRDNARNILYLQMSSLRSEDTAIYYCTRGNYGSSLFAYWGQGTLVTVSA VL: DIVLTQSPASLTVSLGQRATISCRASKSVSTSGYSYMHWYQQKPGQPPKLLIYLASNLESGVPARFSGSGSRTDFTLTIDPVEADDAATYYCQQNNEDPWTFGGGTKLEIKR
3 | no binding (tested: 20 nM) | no binding (tested: 20 nM) | no binding (tested: 20 nM) | no binding (tested: 20 nM) | no binding (tested: 20 nM) | no binding (tested: 20 nM) | no binding (tested: 20 nM) | no binding (tested: 20 nM) | no binding (tested: 20 nM) | no binding (tested: 20 nM) | 16.1 nM | ~200 nM | 0.134 A450 | 0.714 A450 |  | anti-LRRC25 chimeric antibody 3C07 (antibody, human IgG4, V domains shown) VH: EVKLDESGGGLVKPGGSLKLSCAASGFTFSRYAMSWVRQTPEKRLEWVASISRGGSTYYPDSVKGRFTISRDIARDILYLQMSSLRSEDTAMYYCARGNYGSSLFAYWGQGTLVTVSA VL: DIVMTQAAFSNPVTLGTSASISCRSSKSLLHSNGITYLYWYLQKPGQSPQLLIYQMSNLASGVPDRFSSSGSGTDFTLRISRVEAEDVGVYYCAQNLELPWTFGGGTKLEIKR
4 | no binding (tested: 20 nM) | no binding (tested: 20 nM) | no binding (tested: 20 nM) | no binding (tested: 20 nM) | no binding (tested: 20 nM) | no binding (tested: 20 nM) | no binding (tested: 20 nM) | no binding (tested: 20 nM) | no binding (tested: 20 nM) | no binding (tested: 20 nM) | 0.39 nM | 0.65 nM | 0.054 A450 | 2.6 A450 |  | anti-LRRC25 chimeric antibody 2C07 (antibody, human IgG4, V domains shown) VH: QITLKESGPGILQPSQTLSLTCSFSGFSLTTSGMGVSWIRQPSGKGLEWLAHIYWDDDKRYNPSLRSRLTISKDTSSNQVVLKLTNVDTADTATYYCARRARDYYNSGHWYFDVWGAGTTVTVSS VL: DVVMTQTPKSMSMSVGERVTLSCKASENVGTYVSWYQQKPDQSPKLLIFGASNRYTGVPDRFTGSGSATDFTLTISSVQAEDLADYHCGQTYSFPFTFGSGTKLEIKR
5 | no binding (tested: 20 nM) | no binding (tested: 20 nM) | no binding (tested: 20 nM) | no binding (tested: 20 nM) | no binding (tested: 20 nM) | no binding (tested: 20 nM) | no binding (tested: 20 nM) | no binding (tested: 20 nM) | no binding (tested: 20 nM) | no binding (tested: 20 nM) | 2 nM | 1.4 nM | 0.049 A450 | 2.39 A450 |  | anti-LRRC25 chimeric antibody 2C08 (antibody, human IgG4, V domains shown) VH: QVTLKESGPGILQPSQTLSLTCSFSGFSLSTSGMGVSWIRQPSGKGLEWLAHIYWDDDKRYNPSLKSRLTLSKDTSSNQVFLKITSVDTADTATYYCARRPRDYYGGGHWYFDVWGAGTTVTVSS VL: DIVMTQSPKSMSMSVGERVTLTCKASENVGTYVSWYQQKAEQSPKLLIYGASNRYTGVPDRFTGSGSATDFTLTISNVQTEDLADYHCGQSYSYPFTFGSGTKLEIKR
